Series [1] deals with T1, PtaGTL1-C (C-terminal trihelix DNA-binding fragment) (Populus tremula x P. alba (clone …, UniProt G8G9Q9 528-779)).
T1 sequence: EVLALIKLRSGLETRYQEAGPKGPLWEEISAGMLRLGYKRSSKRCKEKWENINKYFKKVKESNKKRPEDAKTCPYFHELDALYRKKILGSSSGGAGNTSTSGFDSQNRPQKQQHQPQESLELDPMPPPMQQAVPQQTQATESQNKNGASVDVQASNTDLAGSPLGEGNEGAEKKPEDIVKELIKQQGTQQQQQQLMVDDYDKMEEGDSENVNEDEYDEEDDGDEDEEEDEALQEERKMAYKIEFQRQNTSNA
Put plainly: EMSA; LightShift Chemiluminescent EMSA kit, per cited earlier method; 200 ng biotin probe, 1000 ng competitor; binding buffer, salt, pH and temperature not stated (probes annealed in 10 mM Tris-HCl, 1 mM EDTA, pH 8.0). The note with it: protein: recombinant; tags: N-terminal 6xHis (pDEST17); label: 3' biotin (probe); blunt. (A gel shift assay detects complexes by their altered migration in electrophoresis.)

In series [2] the target is T1, PtaGTL1-C (C-terminal trihelix …). Put plainly: EMSA; text: mutation inhibited the interaction; LightShift Chemiluminescent EMSA kit, per cited earlier method; 200 ng biotin probe, 1000 ng competitor; binding buffer, salt, pH and temperature not stated (probes annealed in 10 mM Tris-HCl, 1 mM EDTA, pH 8.0). The note with it: protein: recombinant; tags: N-terminal 6xHis (pDEST17); label: 3' biotin (probe); blunt.

From PMC3292583, “Poplar GTL1 Is a Ca2+/Calmodulin-Binding Transcription Factor that Functions in Plant Water Use Efficiency and Drought Tolerance” come the findings set out here.

B1: AtSDD1m (GT3 box GGTAAA to CCTAAA) (dsDNA)
DNA 1: TTCTTTGGCTTCCTAAAACTTCAATGGA
DNA 2: TCCATTGAAGTTTTAGGAAGCCAAAGAA
As for B1, the binding result in series [1] is listed as “no binding”.

B2: AtSDD1 promoter fragment with GT3 box (dsDNA)
DNA 1: TTCTTTGGCTTGGTAAAACTTCAATGGA
DNA 2: TCCATTGAAGTTTTACCAAGCCAAAGAA
B2: the binding result in series [1] was “binds”.

B3: PtSDD1m (GT2 box GGTAAT to CCTAAT) (dsDNA)
DNA 1: TTCGTGAATATCCTAATGATTAT
DNA 2: ATAATCATTAGGATATTCACGAA
As for B3, in series [2], the binding result is on record as “no binding”.
